# Laboratory results: the nanobody polyreactivity screen of Harvey et al. (2022)
# Experiment: yeast display, Sf9 membrane polyspecificity reagent, FACS + sequencing; frameworks hold sequencing errors
# Outline: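 Nanobodies came from a synthetic yeast display library in Saccharomyces cerevisiae BJ5465, induced with galactose for 36–48 hours and stained for 1 hour at 4 °C with 10% biotinylated, detergent-solubilized Sf9 membrane reagent. Cells were enriched on streptavidin microbeads and then FACS-sorted, with low and high (top ~1%) gates set on anti-HA fluorescence for expression and streptavidin fluorescence for reagent binding. Each polyreactivity label reflects the gate a clone came from. Genes were amplified by colony PCR, sequenced by MiSeq 2 × 250 and filtered by CDR length.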
row,Sequence,polyreactivity (PSR sort gate)
1,QVQLVESGGGLVQAGGSLRLSCAASGRTFPAYAMGWYRQAPGKERELVASIDLSGGSTSYADSVKGRFTISRDNAKNTVYLQMNSLKPEDTAVYYCAKKGRWSSASSGYYYWGQGTQVTVSS,low polyreactivity
2,QVQLVESGGGLVQAGGSLRLSCAASGRTFPCYAMGWYRQAPGKEREFVAAITASGDSTYYADSVKGRFTISRDNAKNTVYLQMNSLKPEDTAVYYCAADLPVWYVTRYDYWGQGTQVTVSS,low polyreactivity
3,QVQLVESGGGLVQAGGSLRLSCAASGRTFPEYDMGWYIQAPGKERELVAAISTSGGSTYYADSVKGRFTISRDNAKNTVYLQMNSLKPEDTAVYYCAAQVTSIWGFTYAYRYDYWGQGTQVTVSS,low polyreactivity
4,QVQLVESGGGLVQAGGSLRLSCAASGRTFPGNAMGWYRQAPGKERELVAAISYRGGSTYYADSVKGRFTISRDNAKNTVYLQMNSLKPEDTAVYYCAAASERTGYYYWGQGTQVTVSS,high polyreactivity
5,QVQLVESGGGLVQAGGSLRLSCAASGRTFPGNAMGWYRQAPGKERELVAGISYRGGSTYYADSVKGRFTISRDYGKNTVYLQMNSLKPEDTAVYYCARDYSRHKGDYWGQGTQVNVSS,low polyreactivity
6,QVQLVESGGGLVQAGGSLRLSCAASGRTFPGYAMGWYRQAPGKERELVASITSRGGITNYADSVKGRFTISRDIAKNTVYLQMLCLKPEDTSVYYCAAVSFWTMDYWGQGTQVTVSS,low polyreactivity
7,QVQLVESGGGLVQAGGSLRLSCAASGRTFPGYAMGWYRQAPGKERELVATITFSDGSTYYADSVKGRFTISRDNAKNSVYLQMNSLKQEDTAVYYCNARRSYFLRYGVNYWGQGNQVTVSS,low polyreactivity
8,QVQLVESGGGLVQAGGSLRLSCAASGRTFPGYAMGWYRQAPGKETELVATISSADSTNYADSVKGRFTISRDNAKNTVYLQMNSLKPEDTAVYYCAERYGRNGAAAQYTGWYRYDYWGQGTQVTVSS,low polyreactivity
9,QVQLVESGGGLVQAGGSLRLSCAASGRTFPHYAMGWYRQAPGKERELVAAISSSGGSTYYADSVKGRFTISRDNAKNTVYLQMNSLKPEDNAVYYCAARYVDDGWKYDYWGQGTQVTVSS,low polyreactivity
10,QVQLVESGGGLVQAGGSLRLSCAASGRTFPINAMGWYRQAPGKERELVASIRWTDGTTYYADSVKGRFTISRDNAKNTVYLQMNSLKPEDTAVYYCAADAEGSASKYDYWGQGTQVTVSS,low polyreactivity
11,QVQLVESGGGLVQAGGSLRLSCAASGRTFPLNAMGWYRQAPGKERELVASITKSTGNTRYADSVKGRFTISRDNAKNTVYLQMNSLKPEDTAVYYCAARSYRDRYYWGQGTQVNVSS,high polyreactivity
12,QVQLVESGGGLVQAGGSLRLSCAASGRTFPLYAMGWYRQAPGKERELVAAISLSGGRTYYADSVKGRFTISRDNAKNTVYLQMNSLKPEDTAVYYCAARGTLSAQVGIRRYDYWGQGTQVTVSS,low polyreactivity
13,QVQLVESGGGLVQAGGSLRLSCAASGRTFPRNAMGWSRQAPGKERELVAAISSTGDSTYYADSVKGRFTISRDNAKNTVYLQMNSLKPEDTAVYYCHYPYDYWGKGTQVTVSS,low polyreactivity
14,QVQLVESGGGLVQAGGSLRLSCAASGRTFPRNGMGWYRQAAGKERELVAAICWSGGRTYYADSVKGRFTISRDNAKNTVYLQMNSLKPEDTAVYYCNALYFRKGGYWGQGTQVTVSS,high polyreactivity
15,QVQLVESGGGLVQAGGSLRLSCAASGRTFPRNGMGWYRQAPGTERELVAAISWSGGRTYYADSVKGRFTISRDNAKNTVYLQMNSLKPEDTAVYYCNALYFRKGGYWGQGTQVTVSS,high polyreactivity
16,QVQLVESGGGLVQAGGSLRLSCAASGRTFPRYAMGWYRPAAGKVWELVAAISVRAGITYYADSVKGRFTISRDNAKNTVYFQMNSLKPEDTAVYYCAKDHWTTSYDEGDYWGQGTQETVSS,low polyreactivity
17,QVQLVESGGGLVQAGGSLRLSCAASGRTFPRYAMGWYRQAPGKERELVAGISWSGGRTYYADSVKGRFTISRDNAKNTVYLQMNSLKPEDTAVYYCAVVSKNLSYRTTFYYWGQGTQVTVSS,high polyreactivity
18,QVQLVESGGGLVQAGGSLRLSCAASGRTFPRYTMGWYRQAPGKERELVAASATGGSTYYADSVKGRFTISRDNAKNTVYLQMNSLKPEDTAVYYCAAYKLYPYYSTEYDYWGQGTQVTVSS,high polyreactivity
19,QVQLVESGGGLVQAGGSLRLSCAASGRTFPRYVMGWNRQAPGKERELVAAISSSGGSTYYADSVKGRFTISRDNAKNTVYLQMNSLKPEDTAVYYCAAPSGGSKRYYYWGQGTKVTVSS,high polyreactivity
20,QVQLVESGGGLVQAGGSLRLSCAASGRTFPSYAMGWYRQAPGKERELVAAITRGGSTNYADSVKGRFTISRDNAKNTVYLQMNSLKPEDTAVYYCAAARWRWQLARDDYWGQGTQVTVSS,high polyreactivity
21,QVQLVESGGGLVQAGGSLRLSCAASGRTFPSYAMGWYRQAPGKERELVAAITRGGSTNYADSVKGRFTISRDNAKNTVYLQMNSLKPEDTAVYYWAAARWRWQLARDDYWGQGTQVTVSS,high polyreactivity
22,QVQLVESGGGLVQAGGSLRLSCAASGRTFPSYAMGWYRQAPGTERELVAAITVSGGNTYYAHSVKGRFTISRDNAKNTVYLQMNSLKPEDTAVYYCNTPSYVSWYVHYYYWGQGTQVTVSS,low polyreactivity

row,Sequence,polyreactivity (PSR sort gate)
1,QVQLVESGGGLVQAGGSLRLSCAASGRTFPSYAMGWYRQSPGKERELVAAITVSGGNTYYADSVKGRFTISRDNAKNTVYLQMNSLKPEDTAVYYCNTASYVSWYVHYYYWGQGTQVTVSS,low polyreactivity
2,QVQLVESGGGLVQAGGSLRLSCAASGRTFPTNAMGWYRQAPGKERELVARITWSGGSTYADSVKGRFTISRDNAKNTVYFQMNSLKPEDTAVYYCAARGYKPQFPWRRYDYWGQGTQVTVSS,high polyreactivity
3,QVQLVESGGGLVQAGGSLRLSCAASGRTFPVNAMGWYRQAPGKERELVAAITTNGGRTYYADSVKGRFTISRDNAKNTVYLQMNSLKPEDTAVYYCATRAYNDKRYGYWGQGTQVTVSS,high polyreactivity
4,QVQLVESGGGLVQAGGSLRLSCAASGRTFPWYAMGWYRQAPGKERELVADITWSGGSTYYADSVKGRFTISRDNAKNTVYLQMNSLKPEDTAVYYCATRVLFWYRKYPGRPLTKYDYWGQGTQVTVSS,high polyreactivity
5,QVQLVESGGGLVQAGGSLRLSCAASGRTFPWYAMGWYRQAPGKERELVATISRSGASTYYADSVKGRFTISRDNAKNTVYLQMNSLKPEDTAVYYCAARLGYATLYSWGQGTQVTVSS,high polyreactivity
6,QVQLVESGGGLVQAGGSLRLSCAASGRTFPYNAMGWYRQAPGKERELVAAISYSGGRTYYADSVKGRFTISRDNAKNTVYLLMNSLKPEDTAVYYCNALGSGREDDYWGQGTQVTVSS,high polyreactivity
7,QVQLVESGGGLVQAGGSLRLSCAASGRTFPYNAMGWYRQAPGKERELVAVISSSGGSTYYADSVKGRFTISRDNAKNTVYLQMNSLKPEETAVYYCNTRPYYYRRPGYRYSGYDYWGQGTQVTVSS,high polyreactivity
8,QVQLVESGGGLVQAGGSLRLSCAASGRTFPYYAMGWSRQAPGKERELVAGITSNAGSTYYADSVKGRFTISRDNAKNTVYLQMNSLKPEDTAVYYCAKTKAGRWTTFKFGYWGQGTQVTVSS,high polyreactivity
9,QVQLVESGGGLVQAGGSLRLSCAASGRTFPYYAMGWYRQAPGKEREFVAGISRTGGSTYYADSVKGRFTISRDNAKNTVYLQMNSLKPEDTAVYYCNAPYIMTQQGGRRYDYWGQGTQVTVSS,high polyreactivity
10,QVQLVESGGGLVQAGGSLRLSCAASGRTFPYYAMGWYRQAPGKERELVAAINGRGGSTYYSDSVKGRFTISRDNAKNTVYLQMNSLKPEDTAVYYCAARYESRYSRYGYWGQGTQVTVSS,high polyreactivity
11,QVQLVESGGGLVQAGGSLRLSCAASGRTFPYYAMGWYRQAPGKERELVAAISYSGGTTYYADSVKGRFTISRDNAKNTVYLQMNSLKPEDTAVYYCAAERAILSSDKQSLWRFDYWGQGTQVTVSS,low polyreactivity
12,QVQLVESGGGLVQAGGSLRLSCAASGRTFPYYAMGWYRQAPGKERELVARIRSDGSTNYADSVKGRFTISRDNAKNTVYLQINSLKPDDTAVYDCAAKPYPSLFFHYGYWGQGTQVTVSS,low polyreactivity
13,QVQLVESGGGLVQAGGSLRLSCAASGRTFPYYAMGWYRQAPGKERELVARITSGSGTYYADSVKGRFTISRDNAKNTVYLQMNSLKPEDTAVYYCAAREPGVGYVGHYTGLDYWGQGTQVTVSS,low polyreactivity
14,QVQLVESGGGLVQAGGSLRLSCAASGRTFPYYDIGWYRKAPGKERELVAAITSGGTTNYADSVKGRFTISRDNAKNTVYLQMNSLKPEDTAVYNCAAGSPWYYFSSYGYWGQGTQVTVSS,low polyreactivity
15,QVQLVESGGGLVQAGGSLRLSCAASGRTFQDNAMGWNRQAPGKETELVAAISWRGGSTNYADSVKGRFTISRDHAKNTVYLQMNSLKPEHTAVYYCNRDPRKYGKLDYWGQGTQVTVSS,low polyreactivity
16,QVQLVESGGGLVQAGGSLRLSCAASGRTFQENGMGWYRQAPGKERELVATISQRGTSTYYADSVKGRFTISRDNAKNTVYLQMNSLKPEDTAVEYCARRRVYRWYTGDYWGQGTQVTVSS,low polyreactivity
17,QVQLVESGGGLVQAGGSLRLSCAASGRTFQEYAMGWYRQAPGKERELVADISDGGSTNYADSVKGRFTISRDNAKNTVYLQMYRLKPEDTAVYYCAADQYHGVGINFRSDYDYWGQGTQVTVSS,low polyreactivity
18,QVQLVESGGGLVQAGGSLRLSCAASGRTFQKYAMGWYRQAPGKERELVAAITGSGGSTYYADSVKGRFTISRDIAKYTVYLQMNSLKPEDTAVYYCAAYAYGVWHSQDGGNYWGQGTLVTVSS,low polyreactivity
19,QVQLVESGGGLVQAGGSLRLSCAASGRTFQNYAMGWYRQAPGKERELVADITSGGSTYADSVKGRFTMSRDNAKNTVYLQMNSLKPEDTAVYYCNADRTYPEPAEYYYWGQGTQVTVSS,low polyreactivity
20,QVQLVESGGGLVQAGGSLRLSCAASGRTFQPNVMGLFRQEPGKESELVAAISWSGASTYYADSVKGRFTISRDNAKNTVYLQMNSLKPEDTSVYYCAAEFPFPPACDYWGQGTQVTVSS,low polyreactivity
21,QVQLVESGGGLVQAGGSLRLSCAASGRTFQRYALGWYRQAPGKERELVAAITSRGGSTYYADSVKGRFTISRDNAKNTDYLQMNSLIPEETAVYYCSARSRRTHSEPQSEMDYWGQGTQVTVSS,high polyreactivity
